Assays:
FGFR1 (acro) = FGFR1 (acro) (UniProt P11362); assay: ELISA, antibody 10 µg/mL
[1] = biological target: recombinant mouse FGFR2b (mouse) (UniProt P21803); assay: BLI, antibody on AHC2 sensor
[2] = biological target: recombinant mouse FGFR2b (mouse) (UniProt P21803); assay: ELISA, antibody 1ug/mL
[3] = biological target: extracellular domain of the FGFR2b protein (NP_075259.4) (UniProt P21802); assay: phage ELISA
[4] = biological target: extracellular domain of FGFR2c protein (Example 1) (UniProt P21802); assay: phage ELISA
Chain of extracellular domain of FGFR2c protein (Example 1) (P21802 22-377): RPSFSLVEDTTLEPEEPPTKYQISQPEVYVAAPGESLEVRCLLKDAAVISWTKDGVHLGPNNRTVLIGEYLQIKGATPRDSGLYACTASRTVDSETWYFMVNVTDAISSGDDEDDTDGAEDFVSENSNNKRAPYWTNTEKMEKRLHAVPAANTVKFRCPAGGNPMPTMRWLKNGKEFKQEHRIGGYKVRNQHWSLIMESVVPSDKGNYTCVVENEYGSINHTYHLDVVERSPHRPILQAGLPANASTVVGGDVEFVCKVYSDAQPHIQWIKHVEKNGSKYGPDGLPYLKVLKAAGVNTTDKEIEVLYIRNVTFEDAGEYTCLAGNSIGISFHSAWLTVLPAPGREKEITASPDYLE

Chain of FGFR1 (acro) (P11362 22-376): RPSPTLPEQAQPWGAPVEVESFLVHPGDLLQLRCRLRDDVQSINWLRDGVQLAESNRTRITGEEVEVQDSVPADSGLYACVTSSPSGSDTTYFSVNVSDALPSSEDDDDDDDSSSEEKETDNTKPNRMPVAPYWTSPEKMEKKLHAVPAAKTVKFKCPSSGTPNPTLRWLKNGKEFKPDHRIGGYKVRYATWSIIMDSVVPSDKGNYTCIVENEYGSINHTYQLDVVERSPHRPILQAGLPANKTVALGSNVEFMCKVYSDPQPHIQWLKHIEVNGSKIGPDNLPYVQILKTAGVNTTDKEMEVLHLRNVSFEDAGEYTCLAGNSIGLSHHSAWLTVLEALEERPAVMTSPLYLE
Chain of extracellular domain of the FGFR2b protein (NP_075259.4) (P21802 other isoform, or with tags, fused parts or gaps): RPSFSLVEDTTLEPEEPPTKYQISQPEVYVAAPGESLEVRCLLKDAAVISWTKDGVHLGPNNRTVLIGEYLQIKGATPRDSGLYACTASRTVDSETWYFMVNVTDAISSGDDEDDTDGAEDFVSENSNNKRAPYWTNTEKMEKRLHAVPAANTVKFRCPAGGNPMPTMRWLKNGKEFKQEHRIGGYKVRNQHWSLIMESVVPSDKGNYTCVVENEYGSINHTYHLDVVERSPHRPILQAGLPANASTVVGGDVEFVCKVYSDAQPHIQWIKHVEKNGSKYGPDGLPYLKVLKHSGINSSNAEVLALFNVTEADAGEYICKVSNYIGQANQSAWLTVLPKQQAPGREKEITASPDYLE
Chain of recombinant mouse FGFR2b (mouse) (P21803 22-377): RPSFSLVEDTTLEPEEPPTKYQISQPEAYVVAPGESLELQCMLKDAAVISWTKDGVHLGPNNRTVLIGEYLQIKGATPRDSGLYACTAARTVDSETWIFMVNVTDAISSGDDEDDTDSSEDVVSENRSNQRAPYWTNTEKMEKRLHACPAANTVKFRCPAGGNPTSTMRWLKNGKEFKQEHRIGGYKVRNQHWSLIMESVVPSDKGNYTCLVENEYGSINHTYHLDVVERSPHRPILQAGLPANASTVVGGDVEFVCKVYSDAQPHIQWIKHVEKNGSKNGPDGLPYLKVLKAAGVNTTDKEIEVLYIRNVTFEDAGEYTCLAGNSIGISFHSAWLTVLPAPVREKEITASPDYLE

| Binder | OD (450 nm) value (FGFR1 (acro)) | Kd [1] [nM] | koff [1] [s⁻¹] | kon [1] [M⁻¹ s⁻¹] | OD (450 nm) value [2] | OD (450 nm) value [3] | OD (450 nm) value [4] |
| --- | --- | --- | --- | --- | --- | --- | --- |
| 3E2 scFv-Fc (Fc fusion) EIQLQQSGAELVKPGASVKMSCKASGYTFSFYNMHWVKRTPGQGLEWIGLIYPDNGDTSYNQKFKGKATLTADTSSSTAYMQLSSLTSEDSAVYYCARGGLDYWGQGTSLTVSSGGGGSGGGGSGGGGSNIVMTQSQKFMSTSVGDRVSVTCKASQNVGTNVAWYQQKPGQSPKALIYSASYRYTGVPDRFTGSGSGTDFTFTISSVQAEDLAVYYCQQHYSTPYTFGGGTKLEIKESKYGPPCPPCPAPEAAGGPSVFLFPPKPKDTLMISRTPEVTCVVVDVSQEDPEVQFNWYVDGVEVHNAKTKPREEQFNSTYRVVSVLTVLHQDWLNGKEYKCKVSNKGLPSSIEKTISKAKGQPREPQVYTLPPSQEEMTKNQVSLTCLVKGFYPSDIAVEWESNGQPENNYKTTPPVLDSDGSFFLYSKLTVDKSRWQEGNVFSCSVMHEALHNHYTQKSLSLSLG | 0.122 | 36.5 | 0.00152 | 41800 | 2.96 | – | – |
| 3A12 scFv displayed on phage (scFv) scFv: EVQLQQSGAELVKPGASVKMSCKASGYTFSFYNVHWVRQTPGQGLEWIGLIYPDNGDTSYNQKFKAKATLTADKSSSAAYMQLSSLTSEDSAVYYCARGGFDYWGQGTSLTVSSGGGGSGGGGSGGGGSDIVMTQSHKFMSTSVGDRVNITCKASQDVSTAVAWYQQKPGQSPKLLIYSASYRYSGVPDRFTGSGSGTDFTFTISSVQAEDLAVYYCQQHYSTPYTFGGGTKLEMK | – | – | – | – | – | 2.41 | 0.1 |
| 1B8 scFv-Fc (Fc fusion) QIQLQQSGAELVKPGASVKMSCKASGYTFASYNLHWVKQTPGQGLEWIGLIYPENGDTSYNQKFKGKATLTADTSSTTAYIQLSSLTSEDSAVYFCARGGFDYWGQGTSLTVSSGGGGSGGGGSGGGGSDIKMTQSPASLSASVGETVTITCGASENIYGALNWYQRKQGKSPQLLIYGATNLADGMSSRFSGSGSGRQYSLKISSLHPDDVATYYCQNVLSTPYTFGGGTKLEIKESKYGPPCPPCPAPEAAGGPSVFLFPPKPKDTLMISRTPEVTCVVVDVSQEDPEVQFNWYVDGVEVHNAKTKPREEQFNSTYRVVSVLTVLHQDWLNGKEYKCKVSNKGLPSSIEKTISKAKGQPREPQVYTLPPSQEEMTKNQVSLTCLVKGFYPSDIAVEWESNGQPENNYKTTPPVLDSDGSFFLYSKLTVDKSRWQEGNVFSCSVMHEALHNHYTQKSLSLSLG | 0.092 | 74.9 | 0.0048 | 64000 | 2.01 | – | – |
| 3A3 scFv-Fc (Fc fusion) QVQLQQSGAELVKPGASVKMSCKASGYTFTTYNIHWVRQTPGQGLEWIGLIYPDNGDTSYNQKFKAKATLTADKSSSTAYMHLSSLTSEDSAVYYCARGGFDYWGQGTTLTVSSGGGGSGGGGSGGGGSDIVMTQSHKFMSTSVGDRVSITCKASQDVNTDVSWYQQKPGQSPKLLIYSASYRYTGVPTRFTGSGSGTDFTFTISGVQAEDLADYYCQQHYNTPYTFGGGTRLEIKESKYGPPCPPCPAPEAAGGPSVFLFPPKPKDTLMISRTPEVTCVVVDVSQEDPEVQFNWYVDGVEVHNAKTKPREEQFNSTYRVVSVLTVLHQDWLNGKEYKCKVSNKGLPSSIEKTISKAKGQPREPQVYTLPPSQEEMTKNQVSLTCLVKGFYPSDIAVEWESNGQPENNYKTTPPVLDSDGSFFLYSKLTVDKSRWQEGNVFSCSVMHEALHNHYTQKSLSLSLG | 0.097 | 39.6 | 0.00122 | 30800 | 2.63 | – | – |
| 3D6 scFv displayed on phage (scFv) scFv: QVQLQQSGAELVKPGASVKMSCKASGYTFRYYNMHWVKRTPGQGLEWIGLIYPDNGDTSYNQKFKGKATLTADTSSSTAYMQLSSLTSEDSAVYYCARGGLDYWGQGTSLTVSSGGGGSGGGGSGGGGSDIQMTQSPASLSVSVGETVTITCRASENIYSNLAWYQQKQGKSPQLLVYNAKTLADGVPSRFSGSGSGTQYSLKINSLQPEDFGSYYCQHFWSTPFTFGSGTKLELK | – | – | – | – | – | 1.92 | 0.037 |
| 1C10 scFv displayed on phage (scFv) scFv: QVQLQQSGAELVKPGASVKMSCKASGYTFRYYNMHWVKRTPGQGLEWIGLIYPDNGDTSYNQKFKGKATLTADTSSSTAYMQLSSLTSEDSAVYYCARGGLDYWGQGTSLTVSSGGGGSGGGGSGGGGSDIVMTQSPASLSASVGETVTITCRASGNIHNYLAWYQQKQGKSPQLLVYNAKTLADGVPSRFSGSGSGTQYSLKINSLQPEDFGSYYCQHFWSTPYTFGGGTKLEMK | – | – | – | – | – | 2.55 | 0.068 |
| 1D7 scFv-Fc (Fc fusion) QIQLQQSGAELVKPGASVKMSCKASGYTFRYYNMHWVKRTPGQGLEWIGLIYPDNGDTSYNQKFKGKATLTADTSSSTAYMQLSSLTSEDSAVYYCARGGLDYWGQGTSLTVSSGGGGSGGGGSGGGGSDIQMTQSPSSMSASLGDRITITCQATQDIVKNLNWYQQKPGKPPSFLIYYATELAEGVPSRFSGSGSGSDYSLTISNLESEDFADYYCLQFYEFPLTFGAGTKLELKESKYGPPCPPCPAPEAAGGPSVFLFPPKPKDTLMISRTPEVTCVVVDVSQEDPEVQFNWYVDGVEVHNAKTKPREEQFNSTYRVVSVLTVLHQDWLNGKEYKCKVSNKGLPSSIEKTISKAKGQPREPQVYTLPPSQEEMTKNQVSLTCLVKGFYPSDIAVEWESNGQPENNYKTTPPVLDSDGSFFLYSKLTVDKSRWQEGNVFSCSVMHEALHNHYTQKSLSLSLG | 0.074 | 27.6 | 0.00117 | 42500 | 3.04 | – | – |
| 1C10 scFv-Fc (Fc fusion) QVQLQQSGAELVKPGASVKMSCKASGYTFRYYNMHWVKRTPGQGLEWIGLIYPDNGDTSYNQKFKGKATLTADTSSSTAYMQLSSLTSEDSAVYYCARGGLDYWGQGTSLTVSSGGGGSGGGGSGGGGSDIVMTQSPASLSASVGETVTITCRASGNIHNYLAWYQQKQGKSPQLLVYNAKTLADGVPSRFSGSGSGTQYSLKINSLQPEDFGSYYCQHFWSTPYTFGGGTKLEMKESKYGPPCPPCPAPEAAGGPSVFLFPPKPKDTLMISRTPEVTCVVVDVSQEDPEVQFNWYVDGVEVHNAKTKPREEQFNSTYRVVSVLTVLHQDWLNGKEYKCKVSNKGLPSSIEKTISKAKGQPREPQVYTLPPSQEEMTKNQVSLTCLVKGFYPSDIAVEWESNGQPENNYKTTPPVLDSDGSFFLYSKLTVDKSRWQEGNVFSCSVMHEALHNHYTQKSLSLSLG | 0.626 | 75.6 | 0.00216 | 28600 | 2.94 | – | – |
| 2B2 scFv-Fc (Fc fusion) QLQLQQSGAELVKPGASVKMSCKASGYTFASYNLHWVKQTPGQGLEWIGLIYPENGDTSYNQKFKDKATLTADKSSTTAYIQLSSLASEDSAVYFCARGGFDYWGQGTTLTVSSGGGGSGGGGSGGGGSDIVMTQSQKFMSTSVGDRVSVTCKASQNVGTNVAWYQQKPGQSPKALIYSASYRYSGVPDRFTGSGSGTDYTLTISSVQAEDLALYYCQQHYSTPYTFGGGTKLELKESKYGPPCPPCPAPEAAGGPSVFLFPPKPKDTLMISRTPEVTCVVVDVSQEDPEVQFNWYVDGVEVHNAKTKPREEQFNSTYRVVSVLTVLHQDWLNGKEYKCKVSNKGLPSSIEKTISKAKGQPREPQVYTLPPSQEEMTKNQVSLTCLVKGFYPSDIAVEWESNGQPENNYKTTPPVLDSDGSFFLYSKLTVDKSRWQEGNVFSCSVMHEALHNHYTQKSLSLSLG | 0.109 | 53.5 | 0.00235 | 43900 | 3.09 | – | – |
| 3F11 scFv-Fc (Fc fusion) QVQLQQSGAELVKPGASVKMSCKASGYTFAPYNIHWVRQTPGQGLEWIGLIYPDNGDTSYNQKFKAKATLTADKSSSTAYMQLSSLTSEDSAVYYCARGGFDYWGQGTSLTVSSGGGGSGGGGSGGGGSDIVMTQSQKFMSTSVGDRVSVTCKASQNVGTNVAWYQQKPGQSPKALIYSASYRYSGVPDRFTGSGSGTDFTLTISNVQSEDLAEYFCQQHYSTPFTFGSGTKLEIKESKYGPPCPPCPAPEAAGGPSVFLFPPKPKDTLMISRTPEVTCVVVDVSQEDPEVQFNWYVDGVEVHNAKTKPREEQFNSTYRVVSVLTVLHQDWLNGKEYKCKVSNKGLPSSIEKTISKAKGQPREPQVYTLPPSQEEMTKNQVSLTCLVKGFYPSDIAVEWESNGQPENNYKTTPPVLDSDGSFFLYSKLTVDKSRWQEGNVFSCSVMHEALHNHYTQKSLSLSLG | 0.1 | 26 | 0.0015 | 57800 | 2.92 | – | – |
| 3B4 scFv-Fc (Fc fusion) EVQLQQSGADLVKPGASVKMSCKASGYTFSYYNMHWVRRTPGQGLEWIGLIYPDNGDTSYNQKFKGKATLTADTSSSTAYMQLSSLTSEDSAVYYCARGGLDYWGQGTTLTVSSGGGGSGGGGSGGGGSDIQMIQSPASMSASVGETVTITCGASENIYGALNWYQRKQGKSPQLLIYGATNLADGMSSRFSGSGSGRQYSLKISSLHPDDVATYYCQNVLSTPYTFGGGTKLEMKESKYGPPCPPCPAPEAAGGPSVFLFPPKPKDTLMISRTPEVTCVVVDVSQEDPEVQFNWYVDGVEVHNAKTKPREEQFNSTYRVVSVLTVLHQDWLNGKEYKCKVSNKGLPSSIEKTISKAKGQPREPQVYTLPPSQEEMTKNQVSLTCLVKGFYPSDIAVEWESNGQPENNYKTTPPVLDSDGSFFLYSKLTVDKSRWQEGNVFSCSVMHEALHNHYTQKSLSLSLG | 0.458 | 27.3 | 0.0015 | 54900 | 2.88 | – | – |
| 3B7 scFv-Fc (Fc fusion) EVQLQQSGAELVKPGASVKMSCKASGYTFRYYNMHWVKRTPGQGLEWIGLIYPDNGDTSYNQKFKGKATLTADTSSSTAYMQLSSLTSEDSAVYYCARGGFDYWGQGTTLTVSSGGGGSGGGGSGGGGSDIQMTQSPASLSASVGETVTITCGASENIYGALNWYQRKQGKSPQLLIYGATNLADGMSSRFSGSGSGRQYSLKISSLHPDDVATYYCQNVLSTPYTFGGGTKLELKESKYGPPCPPCPAPEAAGGPSVFLFPPKPKDTLMISRTPEVTCVVVDVSQEDPEVQFNWYVDGVEVHNAKTKPREEQFNSTYRVVSVLTVLHQDWLNGKEYKCKVSNKGLPSSIEKTISKAKGQPREPQVYTLPPSQEEMTKNQVSLTCLVKGFYPSDIAVEWESNGQPENNYKTTPPVLDSDGSFFLYSKLTVDKSRWQEGNVFSCSVMHEALHNHYTQKSLSLSLG | 0.083 | 33.9 | 0.00172 | 50700 | 2.97 | – | – |

From patent publication EP4714976A1
